The target in test [1] is T1, matriptase-3 (TMPRSS7) over-expressed in HEK293T cells (human, UniProt Q7RTY8 1-843).
T1 sequence: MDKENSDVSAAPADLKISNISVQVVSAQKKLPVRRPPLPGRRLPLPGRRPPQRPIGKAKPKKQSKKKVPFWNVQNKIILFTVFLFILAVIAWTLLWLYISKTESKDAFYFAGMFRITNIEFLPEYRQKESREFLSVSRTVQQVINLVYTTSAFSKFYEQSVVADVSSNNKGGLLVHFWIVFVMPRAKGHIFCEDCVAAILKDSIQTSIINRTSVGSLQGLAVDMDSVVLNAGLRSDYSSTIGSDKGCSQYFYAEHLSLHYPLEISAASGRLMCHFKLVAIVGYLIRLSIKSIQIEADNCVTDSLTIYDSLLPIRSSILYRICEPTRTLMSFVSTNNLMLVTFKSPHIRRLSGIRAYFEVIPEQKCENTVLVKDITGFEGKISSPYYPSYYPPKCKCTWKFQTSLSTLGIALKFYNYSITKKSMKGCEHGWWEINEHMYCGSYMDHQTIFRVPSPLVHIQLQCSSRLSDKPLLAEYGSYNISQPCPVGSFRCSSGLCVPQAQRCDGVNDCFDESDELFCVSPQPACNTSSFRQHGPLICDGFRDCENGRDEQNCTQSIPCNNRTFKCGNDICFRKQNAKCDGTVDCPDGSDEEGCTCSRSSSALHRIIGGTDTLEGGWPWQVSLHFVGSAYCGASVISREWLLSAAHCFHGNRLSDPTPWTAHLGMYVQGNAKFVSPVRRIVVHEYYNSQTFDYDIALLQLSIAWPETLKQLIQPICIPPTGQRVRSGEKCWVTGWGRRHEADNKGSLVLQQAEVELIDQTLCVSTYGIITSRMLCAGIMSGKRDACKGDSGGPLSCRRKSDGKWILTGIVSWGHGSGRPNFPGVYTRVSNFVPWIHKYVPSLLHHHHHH
In words: FACS on permeabilized HEK293T cells over-expressing matriptase-3 (TMPRSS7). The text has this:
To determine if anti-TMPRSS6 antibodies bind to homologous matriptases, HEK293T cells over-expressing matriptase (ST14) (SEQ ID NO: 100) (FIGS. 5B, 5E, 5H, 5K, 5N, 5Q), and HEK293T cells over-expressing matriptase-3 (TMPRSS7) (SEQ ID NO: 101) (FIGS. 5C, 5F, 5I, 5L, 5O, 5R) were collected (generated in house). HEK293T cells stably expressing human TMPRSS6 (matriptase-2) (SEQ ID NO: 97) (generated by LakePharma Inc as described above, FIGS. 5A, 5D, 5G, 5J, 5M, 5P) were used as a positive control and HEK293T cells (FIGS. 5A-5R) were used as a negative control (as described above). Cells were blocked and permeabilized with dPBS+3% BSA+0.1% Tween-20 before incubation with various anti-TMPRSS6 antibodies diluted in dPBS+3% BSA+0.1% Tween-20. Cells were incubated with anti-TMPRSS6 antibodies and their humanized variants at a concentration of roughly 1 μg/ml for 1 hr. After incubation, cells were washed with dPBS and incubated with goat anti-mouse IgG conjugated with AlexaFluor-488 (Invitrogen, FIGS. 5A-5I) or goat anti-human IgG conjugated with Allophycocyanin (APC) (Jackson Immuno Research, FIGS. 5J-5R) as a 2° antibody. At last, cells were washed with dPBS and re-suspended with dPBS+1 mM EDTA, and then subjected to FACS analysis using a NOVOCYTE® Flow Cytometer. Bound antibody was determined by excitation at 488 nm and measurement of emission (FITC-A) at 530 nm (FIGS. 5A-5I) or by excitation at 640 nm and measurement of emission (APC-A) at 675 nm (FIGS. 5J-5R). Results for these assays are shown in histogram plots in FIGS. 5A-5R.

Test [2] concerns the target T2, TMPRSS6 expressed in transfected HepG2 cells (HAMP-luciferase reporter assay) (UniProt Q8IU80 1-811, limits assumed).
T2 sequence (looked up): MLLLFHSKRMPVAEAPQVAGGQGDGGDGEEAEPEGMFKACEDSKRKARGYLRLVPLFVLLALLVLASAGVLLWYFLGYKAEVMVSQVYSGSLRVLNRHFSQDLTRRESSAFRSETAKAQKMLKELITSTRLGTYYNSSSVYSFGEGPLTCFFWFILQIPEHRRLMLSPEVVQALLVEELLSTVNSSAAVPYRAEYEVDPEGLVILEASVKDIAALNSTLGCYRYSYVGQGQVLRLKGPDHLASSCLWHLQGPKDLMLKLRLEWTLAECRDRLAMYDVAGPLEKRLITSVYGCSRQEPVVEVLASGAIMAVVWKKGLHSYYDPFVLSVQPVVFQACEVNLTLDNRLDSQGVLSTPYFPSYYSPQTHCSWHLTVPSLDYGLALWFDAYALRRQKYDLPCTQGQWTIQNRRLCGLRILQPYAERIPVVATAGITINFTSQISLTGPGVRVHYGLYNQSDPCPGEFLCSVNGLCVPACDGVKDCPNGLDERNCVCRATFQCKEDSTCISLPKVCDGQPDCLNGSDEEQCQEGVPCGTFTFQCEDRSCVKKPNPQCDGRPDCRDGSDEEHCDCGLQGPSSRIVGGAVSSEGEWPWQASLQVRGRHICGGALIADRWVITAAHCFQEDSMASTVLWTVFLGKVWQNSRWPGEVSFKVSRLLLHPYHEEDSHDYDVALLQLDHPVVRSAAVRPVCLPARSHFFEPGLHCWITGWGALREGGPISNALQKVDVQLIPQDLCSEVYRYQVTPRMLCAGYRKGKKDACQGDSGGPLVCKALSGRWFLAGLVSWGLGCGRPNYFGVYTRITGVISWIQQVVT
In words: cell-based or functional assay.

B1: humanized anti-TMPRSS6 antibody variant hzMWTx-003 Var (antibody, human IgG1, kappa, L234A L235A, V domains shown)
VH: QVQLVQSGAEVKKPGASVKVSCKASGFNIEDYYMHWVRQAPGQRLEWMGRIDPEDAETTYSPKFQGRVTIIPDTSANTAYMELSSLRSEDTAVYYCARSIYLDPMDYWGQGTLVTVSS
VL: DIQMTQSPKSLSASVGDRVTITCRASQDVTTALAWYQQKPGQSPKLLIYWATTRHSGVPSRFSGSGSGTDFTLTISSLQPEDFATYYCQQHYSTPYTFGQGTKLEIKR
notes: Human IgG1 / kappa
For the molecule B1, the binding result in test [1] is “no binding (tested: roughly 1 µg/ml)”. The “EC50 of the increase of HAMP promoter activity (HAMP-luciferase reporter assay, HepG2 cells expressing TMPRSS6, hBMP6)” value in test [2] came out at 0.3 µg/mL.

B2: MWTx-001 anti-TMPRSS6 monoclonal antibody (antibody, mouse IgG2a, kappa, V domains shown)
VH: QVQLQQPGAELAKPGASVKMSCKASGYTFTSYWITWVKQRPGQDLEWIGNIYPGSGSTYYNEKFKSKATLTVDTSSRTAYMQLSSLTSADSAVYYCAPYDSDYAMDYWGQGTSVTVSS
VL: DIKMTQSPSSMYASLGERVTITCKASQDINNYLSWFQQKPGKSPKTLIYRANRLVDGVPSRVSGSGSGQDYSLTISSLEYEDVGIYFCLQYDEFPLTFGAGTKLELKR
notes: Mouse monoclonal antibody from hybridoma (ATCC PTA-126759)
Regarding B2, the binding result in test [1] was “no binding (tested: roughly 1 µg/ml)”. Further, in test [2], the “EC50 of the increase of HAMP promoter activity (HAMP-luciferase reporter assay, HepG2 cells expressing TMPRSS6, hBMP6)” value amounted to 3 µg/mL.

B3: MWTx-003 anti-TMPRSS6 monoclonal antibody (antibody, mouse IgG2b, kappa, V domains shown)
VH: EVQLQQSGAELVKPGASVKLSCTASGFNIEDYYIHWVKERTEQGLEWIGRIDPEDGETTYAPQFQGKATIIPDTSSNTAYMQLSSLTSEDAAVYYCARSIYLDPMDYWGQGTSVTVSS
VL: DIVMTQSHKFMSTSVGDRVSITCKASQDVTTAVAWYQQKPGQSPKILIYWATTRHTGVPDRFTGSISGTTYILTISSVQAEDLALYYCQQHYSTPYTFGGGTKLEIKR
notes: Mouse monoclonal antibody from hybridoma (ATCC PTA-126761); The recombinant version r4K12B has the same HC and LC; also called r4K12B; recombinant MWTx-003
As for B3, in test [1], the binding result is “no binding (tested: roughly 1 µg/ml)”. Moreover, the “EC50 of the increase of HAMP promoter activity (HAMP-luciferase reporter assay, HepG2 cells expressing TMPRSS6, hBMP6)” value in test [2] came out at 2 µg/mL.

B4: humanized anti-TMPRSS6 antibody variant hzMWTx-002 Var (antibody, human IgG1, kappa, N297A, V domains shown)
VH: EVQLVQSGAEVKKPGASVKVSCKASGFNIKDYYIHWVRQATGQGLEWMGRIDPEDAESEYAPKFQGRVTITADTSTDTAYMELSSLRSEDTAVYYCTRGDSMMVTYFDYWGQGTLVTVSS
VL: DIQMTQSPSSLSASVGDRVTITCKASQDVSTAVAWYQQKPGKAPKLLIYWAFTRHTGVPSRFSGSGSGTDYALTISSLQPEDFATYYCQQHYRSPWTFGGGTKVEIKR
notes: Human IgG1 / kappa
As for B4, in test [1], the binding result is listed as “no binding (tested: roughly 1 µg/ml)”. Besides, in test [2], the “EC50 of the increase of HAMP promoter activity (HAMP-luciferase reporter assay, HepG2 cells expressing TMPRSS6, hBMP6)” value turned out to be 0.3 µg/mL.

B5: humanized anti-TMPRSS6 antibody variant hzMWTx-001 Var (antibody, human IgG1, kappa, N297A, V domains shown)
VH: EVQLVQSGAEVKKPGASVKVSCKASGYTFTSYWITWVRQAPGQRLEWIGNIYPGSGSTYYNEKFKSKATITRDTSSRTAYMELSSLRSEDTAVYYCAPYDADYAMDYWGQGTLVTVSS
VL: DIQMTQSPSSLSASVGDRVTITCKASQDISNYLSWFQQKPGKAPKLLIYRANRLVEGVPSRFSGSGSGTDFTLTISSLQPEDFATYFCLQYDEFPLTFGGGTKVEIKR
notes: Human IgG1 / kappa
For B5, the binding result in test [1] was “no binding (tested: roughly 1 µg/ml)”. For the same molecule, the “EC50 of the increase of HAMP promoter activity (HAMP-luciferase reporter assay, HepG2 cells expressing TMPRSS6, hBMP6)” value in test [2] is 0.8 µg/mL.

B6: MWTx-002 anti-TMPRSS6 monoclonal antibody (antibody, mouse IgG2b, kappa, V domains shown)
VH: EVQLQQSGAELVKPGASVKLSCTASGFNIKDYYIHWVKERTEQGLEWFGRIDPEDGESEYAPKFQGKATLTADTSSNTAYLQLSSLTSEDTAVYYCTRGDSMMVTYFDYWGQGTTLTVSS
VL: DIVMTQSHKFMSTSVGDRVSITCKASQDVSTAVAWYQQKPGQSPKLLIYWAFTRHTGVPDRFTSTGSGTDYALTISSVQAEDLALYYCQQHYRSPWTFGGGTKLEIKR
notes: Mouse monoclonal antibody from hybridoma (ATCC PTA-126760)
Regarding B6, the binding result in test [1] is reported as “no binding (tested: roughly 1 µg/ml)”. In addition, the “EC50 of the increase of HAMP promoter activity (HAMP-luciferase reporter assay, HepG2 cells expressing TMPRSS6, hBMP6)” value in test [2] amounted to 1 µg/mL.
